Source: publication PMC3712460
Residue numbers refer to the chain shown, from its start. In names and notes the source's numbering stands. Blank lines part the entries; values can stand above or below the molecule they belong to.

Experiments:
Test in all cases: ITC
[1] = molecular target: NapA signal peptide (Escherichia coli) (UniProt P33937); conditions: cited from earlier work
[2] = molecular target: ϕMalE-NapAsp^His A17Q variant (E. coli)
[3] = molecular target: ϕMalE-NapAsp^His M9Q (E. coli)
[4] = molecular target: ϕMalE-NapAsp^His (E. coli)
[5] = molecular target: ϕMalE-NapAsp^His R6Q (E. coli)
[6] = molecular target: ϕMalE-NapAsp^His K10Q (E. coli)

Molecule: NapD (from UniProt P0A9I5)
Kd [1]: 7 nM

Kd [2]: 1100 nM | stoichiometry N [2]: 0.16 | Kd, population 1 (two sites) [3]: 1 nM | Kd, population 2 (two sites) [3]: 75 nM | N, population 1 (two sites) [3]: 0.13 | N, population 2 (two sites) [3]: 0.65 | Kd, population 1 (two sites) [4]: 3 nM | Kd, population 2 (two sites) [4]: 143 nM | N, population 1 (two sites) [4]: 0.35 | N, population 2 (two sites) [4]: 0.64 | Kd [5]: 725 nM | stoichiometry N [5]: 0.6 | Kd [6]: 1300 nM | stoichiometry N [6]: 0.33
B1: NapD^His (natural protein)
chain: MHTNWQVCSLVVQAKSERISDISTQLNAFPGCEVAVSDAPSGQLIVVVEAEDSETLIQTIESVRNVEGVLAVSLVYHQQEEQGEETP

Kd [2]: 633 nM | stoichiometry N [2]: 0.57 | Kd [4]: 328 nM | stoichiometry N [4]: 0.81
B2: NapD T59I (NapD^His variant) (natural protein)
chain: B1 chain with T59I

Kd, population 1 (two sites) [2]: 14 nM | Kd, population 2 (two sites) [2]: 704 nM | N, population 1 (two sites) [2]: 0.29 | N, population 2 (two sites) [2]: 0.62 | Kd [4]: 806 nM | stoichiometry N [4]: 0.97
B3: NapD I19F (NapD^His variant) (natural protein)
chain: B1 chain with I19F

Kd, population 1 (two sites) [2]: 22 nM | Kd, population 2 (two sites) [2]: 261 nM | N, population 1 (two sites) [2]: 0.25 | N, population 2 (two sites) [2]: 0.65 | Kd [4]: 935 nM | stoichiometry N [4]: 0.39
B4: NapD I19F/T59I (NapD^His variant) (natural protein)
chain: B1 chain with I19F, T59I

Kd [2]: 833 nM | stoichiometry N [2]: 1.11 | Kd [4]: 313 nM | stoichiometry N [4]: 0.83
B5: NapD A71T (NapD^His variant) (natural protein)
chain: B1 chain with A71T

Kd [2]: 1870 nM | Kd [4]: 763 nM | stoichiometry N [4]: 0.7
B6: NapD A14T (NapD^His variant) (natural protein)
chain: B1 chain with A14T

Kd, population 1 (two sites) [2]: 12 nM | Kd, population 2 (two sites) [2]: 218 nM | N, population 1 (two sites) [2]: 0.3 | N, population 2 (two sites) [2]: 0.69 | Kd [4]: 571 nM | stoichiometry N [4]: 0.91
B7: NapD A14T/A71T (NapD^His variant) (natural protein)
chain: B1 chain with A14T, A71T
